{
  "source": "paper PMC2018643",
  "about": "(Nucleic Acids Research, 2007)",
  "proteins": {"B1": {"name": "His(6)-Rrp47p (natural protein, S. cerevisiae, UniProt P38801 1-184, looked up)", "chain": "MEDIEKIKPYVRSFSKALDELKPEIEKLTSKSLDEQLLLLSDERAKLELINRYAYVLSSLMFANMKVLGVKDMSPILGELKRVKSYMDKAKQYDNRITKSNEKSQAEQEKAKNIISNVLDGNKNQFEPSISRSNFQGKHTKFENDELAESTTTKIIDSTDHIRKASSKKSKRLDKVGKKKGGKK"}},
  "target": "the molecule itself",
  "test": "SEC",
  "data": [
    {"protein": "B1", "values": [
      {"measurement": "stoichiometry N", "result": 6}
    ]}
  ]
}
